Patent publication US20220151977A1, “Generation Of Water-Soluble Cannabinoids Utilizing Protein Cannabinoid-Carriers” (Trait Biosciences, Inc., priority 2019, published 2022)

B1: 10 (protein)
chain: MHVSTRQPCGAAPTAWPAQRPRSSPRRLACSAVLRDDARGVLQQAGLKLAAAAAAVLLAAPLHAGAASMPANAPLPALPPAPFDIEQSKQSKLLFDPMAYSGRWYEVASLKRGFAGEGQQDCHCTQGIYTPKEGGPEGAIKLEVDTFCVHGGPGGRLSGIQGSVSCADPLLLSYLPEFQTEMEMVEGFVAKCALRFDSLAFLPPEPYVVLRTDYTSYALVRGAKDRSFVQIYSRTPNPGAKFIAEQKAVLGQLGYPANDIVDTPQDCPEMAPQAMMAAMNRGMSSTPTMPASTPPALAMAGYDLGPAAVVLGEEAPAPVKGIAFDRLRNPLESLKNVFSLFN
modifications: Micractinium conductrix
B2: SEQ ID NO. 10: PSC68250.1 lipocalin-like domain, Micractinium conductrix (green algae) (protein)
chain: MHVSTRQPCGAAPTAWPAQRPRSSPRRLACSAVLRDDARGVLQQAGLKLAAAAAAVLLAAPLHAGAASMPANAPLPALPPAPFDIEQSKQSKLLFDPMAYSGRWYEVASLKRGFAGEGQQDCHCTQGIYTPKEGGPEGAIKLEVDTFCVHGGPGGRLSGIQGSVSCADPLLLSYLPEFQTEMEMVEGFVAKCALRFDSLAFLPPEPYVVLRTDYTSYALVRGAKDRSFVQIYSRTPNPGAKFIAEQKAVLGQLGYPANDIVDTPQDCPEMAPQAMMAAMNRGMSSTPTMPASTPPALAMAGYDLGPAAVVLGEEAPAPVKGIAFDRLRNPLESLKNVFSLFN
modifications: Micractinium conductrix
B3: SEQ ID NO. 121: odorant-binding protein 1a-like, Mus caroli (Ryukyu mouse) (protein, listed as Mus caroli)
chain: MVKFLLLELAFGLAHAQMYGPWKTIAIAADNVDKMEISGELRLYFHQITCEKECKKMNVTFYVDENGQCSLTTITGYLQDDGKTYRSQFQGDNHYATVRTTPENIVFYSENVDRAGRKTKLVYVVGKNGSGSLK
B4: 30 (protein)
chain: MAYSGRWYEVASLKRGFAGEGQQDCHCTQGIYTPKEGGPEGAIKLEVDTFCVHGGPGGRLSGIQGSVSCADPLLLSYLPEFQTEMEMVEGFVAKCALRFDSLAFLPPEPYVVLRTDYTSYALVRGAKDRSFVQIYSRTPNPGAKFIAEQKAVLGQLGYPANDIVDTPQDCPEMAPQ
modifications: Micractinium conductrix
B5: SEQ ID NO. 30: PSC68250.1 lipocalin-like domain (partial), Micractinium conductrix (protein)
chain: MAYSGRWYEVASLKRGFAGEGQQDCHCTQGIYTPKEGGPEGAIKLEVDTFCVHGGPGGRLSGIQGSVSCADPLLLSYLPEFQTEMEMVEGFVAKCALRFDSLAFLPPEPYVVLRTDYTSYALVRGAKDRSFVQIYSRTPNPGAKFIAEQKAVLGQLGYPANDIVDTPQDCPEMAPQ
modifications: Micractinium conductrix
notes: PSC68250.1 lipocalin-like domain (partial), Micractinium conductrix
B6: 1 (protein)
chain: MTSTEKKDMKAVKGLDLERYMGRWYEIASFPSRFQPKDGVDTRATYTLNPDGTVHVLNETWNGGKRGFIQGSAYKADPKSDEAKLKVKFFVPPFLPVIPVTGDYWVLYIDPEYQHAVIGQPSRSYLWILSRTAHMEEETYKQLVEKAVEEGYDVSKLHKTPQSDTPPESNTAPDDTKGVWWLKSIFGK
modifications: Cluster63 Unique
B7: SEQ ID NO. 1: Cluster63 Unique, artificial consensus sequence based on a family of homologous plant lipocalin sequences (protein)
chain: MTSTEKKDMKAVKGLDLERYMGRWYEIASFPSRFQPKDGVDTRATYTLNPDGTVHVLNETWNGGKRGFIQGSAYKADPKSDEAKLKVKFFVPPFLPVIPVTGDYWVLYIDPEYQHAVIGQPSRSYLWILSRTAHMEEETYKQLVEKAVEEGYDVSKLHKTPQSDTPPESNTAPDDTKGVWWLKSIFGK
modifications: Cluster63 Unique
B8: SEQ ID NO. 148: Odorant-binding protein, partial, Heterocephalus glaber (naked mole-rat) (protein)
chain: MINGDWCSIYIAADNVEKIEERGELRAYFCHIECQDECRNLSGGDRIMRNKHCCVGLSFRLDGVCQEFTVVGVKDEKSGVYITDYVGKNYFTVVESTEYITLFSNIIVDEKGTKMNVVLVAAKRDSLTEKEKQKFAQLAEEKGIPTENIRNVIAT
modifications: Heterocephalus glaber
B9: 33 (protein, listed as Macleaya cordata)
chain: MIRYSGRWFEVASLKRGFAGSGQEDCHCTQGVYTFDSEAPAIQVDTFCVHGGPDGYITGIRGKVQCLSEEDLEKNETDLEKRVMIREKCYLRFPTLPFIPKEPYDVIATDYDNFALVSGAKDTSFIQIYSRTPNPGPEFIEKYKSYLGNYGYDPSMIKDTPQ
B10: SEQ ID NO. 33: OVA10565.1 Lipocalin/cytosolic fatty-acid binding domain (partial), Macleaya cordata (protein, listed as Macleaya cordata)
chain: MIRYSGRWFEVASLKRGFAGSGQEDCHCTQGVYTFDSEAPAIQVDTFCVHGGPDGYITGIRGKVQCLSEEDLEKNETDLEKRVMIREKCYLRFPTLPFIPKEPYDVIATDYDNFALVSGAKDTSFIQIYSRTPNPGPEFIEKYKSYLGNYGYDPSMIKDTPQ

How the values were obtained:
[1] = Ligand binding assay by ANS displacement, THC; settings: 2 μM protein, 20 μM ANS, 33 μM ligand, 20° C.; for binding to THC by ANS displacement (relative change in fluorescence): FIG. 8; for Purification Status (binding to THC): Table 3
[2] = Ligand binding assay by ANS displacement, CBD; settings: 2 μM protein, 20 μM ANS, 33 μM ligand, 20° C.; for binding to CBD by ANS displacement (relative change in fluorescence): FIG. 8; for Purification Status (binding to CBD): Table 3

Row | Molecule | binding to THC by ANS displacement (relative change in fluorescence) [1] | binding to CBD by ANS displacement (relative change in fluorescence) [2] | Purification Status (binding to THC) [1] | Purification Status (binding to CBD) [2] | binding to THC by ANS displacement (relative change in fluorescence) ([1]; listed as OBP2) | binding to CBD by ANS displacement (relative change in fluorescence) ([2]; listed as OBP2)
1 | B1 | bind to both THC and CBD | bind to both THC and CBD |  |  |  | 
2 | B2 |  |  | Binds to CBD | Binds to CBD |  | 
3 | B3 |  |  | Binds to THC | Binds to THC | highest binding affinity | highest binding affinity
4 | B4 | bind to both THC and CBD | bind to both THC and CBD |  |  |  | 
5 | B5 | binds to THC better than full length |  | Binds to CBD | Binds to CBD |  | 
6 | B6 | bind to both THC and CBD | bind to both THC and CBD |  |  |  | 
7 | B7 |  |  | Binds to CBD | Binds to CBD |  | 
8 | B8 |  |  | Binds to THC | Binds to THC |  | 
9 | B9 | bind to both THC and CBD | bind to both THC and CBD |  |  |  | 
10 | B10 |  |  | Binds to CBD | Binds to CBD |  | 
